Legend:
[1] = target: T1, Insr (Rattus norvegicus, UniProt P15127); test: Phosphorylation of insulin receptors (Tyr1158/Tyr1162/Tyr1163) in L6 cells, Western blot; type: cell-based; conditions: 10 μM insulin (Ins) alone, 5 min, FIG. 1(a)
T1 construct: L6 cells were fully differentiated with α-MEM supplemented with 2% FBS for 5 days to myotubes; endogenous in cells; host or cells: L6 myoblasts differentiated to myotubes
Procedure: (§1) […] muscle myoblast cells (L6) was a generous gift from Professor Hitoshi Ashida's Lab. (Kobe University, Kobe, Japan). The cells were grown and maintained in α-minimal essential medium (α-MEM, 12000022, GIBCO, CA, USA) containing 10% fetal bovine serum (FBS, GIBCO) and 1% penicillin streptomycin (GIBCO) in a cell culture incubator with 5% CO2 at 37° C. Prior to the following experiments, the cells were seeded and cultured at a density of 8×10^3 cells per well in 96-well plates or 2.5×10^5 cells per well in 6-well plates. After the myoblasts achieved 80% confluence, the cells were incubated for 5 days in the α-MEM supplemented with 2% FBS to induce differentiation to myotubes.
L6 cells were fully differentiated with α-MEM supplemented with 2% FBS for 5 days to myotubes. The cells were washed twice with Phosphate Buffered Saline (PBS) containing 0.1% BSA and subsequently incubated α-MEM containing 0.25% BSA with or without 100 nM of S961, and treated with or without 100 μM of Tetracosanol for 90 min. Then, the cells were treated with or without 10 μM of insulin for 5 min. […] The levels of the proteins including phospho-Insulin receptors (Tyr1158/Tyr1162/Tyr1163) and Insulin receptor (Cell Signaling, Boston, Mass., USA) were detected and evaluated by Western blot with primary antibody.
The cells after treatments were collected and washed twice in cold KRH buffer, and then lysed in ice-cold RIPA buffer incubation at 4° C. for 60 min. After centrifugation at 12,000×g for 30 min at 4° C., the supernatant was kept and quantified by Bradford protein assay (Bio-Rad, Hercules, Calif., USA). […] The signals were monitored using Western Lightning™ Plus-ECL (Perkin Elmer Life Sciences) and the PVDF membrane was exposed to Luminescent image analyzer (LAS)-3000 (Fujifilm, Minato, Tokyo, Japan). Acquired data were analyzed and compared the difference among treatments. […]

[2] = tested on: AKT; test: Phosphorylation of AKT on Thr308 in L6 cells, Western blot; type: cell-based, rat; conditions: 10 μM insulin (Ins) alone, 30 min, FIG. 1(b)
Procedure: as §1
The L6 cells were fully differentiated with α-MEM supplemented with 2% FBS for 5 days to myotubes. The cells were washed twice with PBS containing 0.1% BSA and subsequently incubated α-MEM containing 0.25% BSA with or without 100 nM of S961, and then treated with or without 100 μM of Tetracosanol for 90 min. Then, the cells were treated with or without 10 μM of insulin for 30 min. Finally, the cells were collected and washed twice in KRH buffer, then lysed in ice-cold RIPA buffer for 60 min. After centrifugation at 12,000×g for 30 min. at 4° C., the supernatant was kept at −80° C. until use. The levels of the proteins including phospho-AKT (Thr308), AKT, phospho-AMPK (Thr172), and AMPK (Cell Signaling) were detected and evaluated by Western blot with primary antibody.
The cells after treatments were collected and washed twice in cold KRH buffer, and then lysed in ice-cold RIPA buffer incubation at 4° C. for 60 min. After centrifugation at 12,000×g for 30 min at 4° C., the supernatant was kept and quantified by Bradford protein assay (Bio-Rad, Hercules, Calif., USA). The proteins were separated using sodium dodecyl sulfate polyacrylamide gel electrophoresis (SDS-PAGE) and subsequently transferred to PVDF (Perkin Elmer Life Sciences, Boston, Mass., USA) membrane. […] The signals were monitored using Western Lightning™ Plus-ECL (Perkin Elmer Life Sciences) and the PVDF membrane was exposed to Luminescent image analyzer (LAS)-3000 (Fujifilm, Minato, Tokyo, Japan). Acquired data were analyzed and compared the difference among treatments.
The differentiated L6 cells were incubated with 100 μM of tetracosanol (Tet) at 37° C. for 90 min, and then treated 10 μM of insulin (Ins) at 37° C. for 5 or 30 min. The cell lysates were separated by SDS-PAGE and blotted 5 min for phospho-Insr on Tyr1158, 1162, and 1163 (Insr, 100 kDa), and phospho-AKT on Thr308 protein level was measured at 30 min in Western blot analysis.

T1 sequence (P15127 27-759 limits assumed): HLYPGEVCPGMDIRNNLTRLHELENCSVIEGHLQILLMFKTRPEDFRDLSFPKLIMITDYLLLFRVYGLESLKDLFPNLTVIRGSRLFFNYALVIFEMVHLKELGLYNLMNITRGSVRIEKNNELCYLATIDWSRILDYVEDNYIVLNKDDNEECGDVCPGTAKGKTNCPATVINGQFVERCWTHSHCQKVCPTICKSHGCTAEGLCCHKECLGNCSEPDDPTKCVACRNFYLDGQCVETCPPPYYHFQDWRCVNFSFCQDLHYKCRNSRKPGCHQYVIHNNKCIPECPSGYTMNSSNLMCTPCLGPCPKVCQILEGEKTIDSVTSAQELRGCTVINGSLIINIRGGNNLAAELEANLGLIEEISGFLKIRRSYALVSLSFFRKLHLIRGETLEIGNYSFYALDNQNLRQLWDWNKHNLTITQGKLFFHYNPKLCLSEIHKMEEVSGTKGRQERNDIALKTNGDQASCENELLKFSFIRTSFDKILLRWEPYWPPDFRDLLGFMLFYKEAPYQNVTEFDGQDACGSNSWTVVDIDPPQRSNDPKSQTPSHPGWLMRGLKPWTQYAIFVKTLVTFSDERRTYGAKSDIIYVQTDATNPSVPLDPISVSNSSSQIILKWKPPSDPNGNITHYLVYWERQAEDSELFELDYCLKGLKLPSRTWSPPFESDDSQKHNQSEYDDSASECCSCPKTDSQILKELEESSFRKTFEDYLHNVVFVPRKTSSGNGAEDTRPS
T1 sequence (P15127 764-1383 limits assumed): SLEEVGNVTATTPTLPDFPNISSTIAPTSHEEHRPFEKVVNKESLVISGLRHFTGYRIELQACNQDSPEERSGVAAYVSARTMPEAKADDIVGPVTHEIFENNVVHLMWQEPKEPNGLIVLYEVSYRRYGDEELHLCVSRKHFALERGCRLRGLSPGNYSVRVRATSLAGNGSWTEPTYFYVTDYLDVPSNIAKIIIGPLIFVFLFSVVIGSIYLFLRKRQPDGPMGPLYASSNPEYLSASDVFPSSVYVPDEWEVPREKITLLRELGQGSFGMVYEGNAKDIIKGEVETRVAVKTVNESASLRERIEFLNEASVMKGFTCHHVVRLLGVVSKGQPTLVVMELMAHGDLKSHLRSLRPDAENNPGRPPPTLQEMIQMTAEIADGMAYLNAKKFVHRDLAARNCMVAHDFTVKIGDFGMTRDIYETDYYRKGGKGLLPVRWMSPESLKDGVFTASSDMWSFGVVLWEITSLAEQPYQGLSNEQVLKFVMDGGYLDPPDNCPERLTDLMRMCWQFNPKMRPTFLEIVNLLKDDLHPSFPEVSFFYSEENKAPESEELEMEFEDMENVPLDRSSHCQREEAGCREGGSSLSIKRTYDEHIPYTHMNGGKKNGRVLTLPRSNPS

Question: “insulin: Insulin purchased from Novo-Nordisk [reference compound]” was tested. Which “phosphorylation of phospho-Insr on Tyr1158, 1162, and 1163” value [1] did it give?
Answer: tended to be enhanced

Question: What about the “phospho-AKT on Thr 308” value [2] of the same substance?
Answer: induced the phospho-AKT on Thr 308
